{"source": "paper PMC8387031", "about": "“Structures of Substrate Complexes of Foamy Viral Protease-Reverse Transcriptase”", "molecules": {"B1": {"name": "GF/MALS RNA/DNA hybrid (DNA:RNA)", "RNA": "GUGAGCGAACAGAGUGCGACACCUGAUUCCAUGA", "DNA": "TCATGGAATCAGGTGTCGCACTCTGTTC"}, "B2": {"name": "substrate 3 dsDNA (dsDNA)", "DNA 1": "AACAGAGTGCGACACCTGATTCCA", "DNA 2": "TGGAATCAGGTGTCGCACTCTG"}, "B3": {"name": "substrate 1 PPT RNA/DNA hybrid (DNA:RNA)", "RNA": "UUCUUGUCCAGGAGAGGG", "DNA": "CCTCTCCTGGACAAG"}, "B4": {"name": "substrate 2 dsDNA (dsDNA)", "DNA 1": "AACAGAGTGCGACAC", "DNA 2": "GTGTCGCACTCTG"}}, "key": {"[1]": {"target": "MFV PR-RT ΔRH (deletion variant of MFV PR-RT that lacked the RH domain) (marmoset foamy virus (MFV))", "experiment": "crystal structure; MFV PR-RT ΔRH at 5 mg/ml with 13-bp dsDNA with a 2-nt 5' overhang (substrate 2) at a 1:1 molar ratio; hanging drop; 0.1 M DL-malic acid pH 7.0, 10% PEG 3350; space group C 2"}, "[2]": {"target": "T1, MFV PR-RT full-length (marmoset foamy virus, UniProt D5JWV1 1-751)", "experiment": "GF/MALS; 2:1 protein:NA; 0.5 mM EDTA; single peak 123.3 kDa, one protein per hybrid; GF/MALS: 20 mM HEPES pH 7.0, 250 mM NaCl, 5% glycerol, 0.5 mM EDTA, 1 mM DTT; cryo-EM: 150 mM NaCl, 20 mM HEPES pH 7.0, 1 mM DTT; crystals: N1 Morpheus MES-imidazole pH 6.5, 18 C; N2 0.1 M DL-malic acid pH 7.0, 10% PEG 3350", "conditions": "protein: recombinant; tags: 6xHis-SUMO (pET28 vector); 28 bp, 5' overhang 6 nt on RNA"}, "[3]": {"target": "T1, MFV PR-RT full-length", "experiment": "cryo-EM (4.8 A); asymmetric dimer; EMD-12698; GF/MALS: 20 mM HEPES pH 7.0, 250 mM NaCl, 5% glycerol, 0.5 mM EDTA, 1 mM DTT; cryo-EM: 150 mM NaCl, 20 mM HEPES pH 7.0, 1 mM DTT; crystals: N1 Morpheus MES-imidazole pH 6.5, 18 C; N2 0.1 M DL-malic acid pH 7.0, 10% PEG 3350", "conditions": "protein: recombinant; tags: 6xHis-SUMO (pET28 vector); 22 bp, 5' overhang 2 nt on template"}, "[4]": {"target": "T1, MFV PR-RT full-length", "experiment": "X-ray crystallography; monomer; 1:1 mix; GF/MALS: 20 mM HEPES pH 7.0, 250 mM NaCl, 5% glycerol, 0.5 mM EDTA, 1 mM DTT; cryo-EM: 150 mM NaCl, 20 mM HEPES pH 7.0, 1 mM DTT; crystals: N1 Morpheus MES-imidazole pH 6.5, 18 C; N2 0.1 M DL-malic acid pH 7.0, 10% PEG 3350", "conditions": "protein: recombinant; tags: 6xHis-SUMO (pET28 vector); 15 bp; RNA 5' overhang 2 nt and 3' overhang 1 nt; recessed DNA 3' end"}, "[5]": {"target": "MFV PR-RT ΔRH (marmoset foamy virus, UniProt D5JWV1 1-588)", "experiment": "X-ray crystallography; asymmetric homodimer; 1:1 mix; GF/MALS: 20 mM HEPES pH 7.0, 250 mM NaCl, 5% glycerol, 0.5 mM EDTA, 1 mM DTT; cryo-EM: 150 mM NaCl, 20 mM HEPES pH 7.0, 1 mM DTT; crystals: N1 Morpheus MES-imidazole pH 6.5, 18 C; N2 0.1 M DL-malic acid pH 7.0, 10% PEG 3350", "conditions": "protein: recombinant; tags: 6xHis-SUMO (pET28 vector); chain copies: 2; 13 bp, 5' overhang 2 nt on template"}}}
{"molecule": "MFV PR-RT ΔRH (deletion variant of MFV PR-RT that lacked the RH domain) (domain or fragment)", "values": [{"measurement": "stoichiometry N", "setting": "[1]", "result": 2}]}
{"molecule": "B1", "values": [{"measurement": "binding result", "setting": "[2]", "result": "binds"}]}
{"molecule": "B2", "values": [{"measurement": "binding result", "setting": "[3]", "result": "binds"}]}
{"molecule": "B3", "values": [{"measurement": "binding result", "setting": "[4]", "result": "binds"}]}
{"molecule": "B4", "values": [{"measurement": "binding result", "setting": "[5]", "result": "binds"}]}
